Measured values taken from article PMC5395295.
Each block holds one substance with its values, some of them ahead of it.

Key:
[1] = target: Pleurobrachia collagen IV NC1 domains (collagenase-solubilised NC1 hexamer) (Pleurobrachia (endogenous in whole ctenophore tissue)); test: SDS-PAGE under reducing and non-reducing conditions with Western blot; NC1 hexamer fractions from gel filtration; 12% gels, 5% beta-mercaptoethanol or none; for Beroe reduction in TBS with various concentrations of DTT (30 min, 37°C), alkylation with iodoacetamide, non-reducing SDS-PAGE; blot with JK-2
[2] = target: Pleurobrachia collagen IV NC1 domains (collagenase-solubilised NC1 hexamer) (Pleurobrachia (endogenous in whole ctenophore tissue)); test: SEC; collagenase digest of whole ctenophore tissue on Superdex 200 10/300 GL; elution compared with native, purified placental basement membrane NC1 hexamer run successively; fractions 12 mL to 16.4 mL blotted with NC1-specific monoclonal antibody (JK-2)
[3] = target: Beroe collagen IV NC1 domains (collagenase-solubilised NC1 hexamer) (Beroe (endogenous in whole ctenophore tissue)); test: SDS-PAGE under reducing and non-reducing conditions with Western blot; NC1 hexamer fractions from gel filtration; 12% gels, 5% beta-mercaptoethanol or none; for Beroe reduction in TBS with various concentrations of DTT (30 min, 37°C), alkylation with iodoacetamide, non-reducing SDS-PAGE; blot with JK-2
[4] = target: Beroe collagen IV NC1 domains (collagenase-solubilised NC1 hexamer) (Beroe (endogenous in whole ctenophore tissue)); test: SEC; collagenase digest of whole ctenophore tissue on Superdex 200 10/300 GL; elution compared with native, purified placental basement membrane NC1 hexamer run successively; fractions 12 mL to 16.4 mL blotted with NC1-specific monoclonal antibody (JK-2)
[5] = target: Mnemiopsis collagen IV NC1 domains (collagenase-solubilised NC1 hexamer) (Mnemiopsis (endogenous in whole ctenophore tissue)); test: SDS-PAGE under reducing and non-reducing conditions with Western blot; NC1 hexamer fractions from gel filtration; 12% gels, 5% beta-mercaptoethanol or none; for Beroe reduction in TBS with various concentrations of DTT (30 min, 37°C), alkylation with iodoacetamide, non-reducing SDS-PAGE; blot with JK-2
[6] = target: Mnemiopsis collagen IV NC1 domains (collagenase-solubilised NC1 hexamer) (Mnemiopsis (endogenous in whole ctenophore tissue)); test: SEC; collagenase digest of whole ctenophore tissue on Superdex 200 10/300 GL; elution compared with native, purified placental basement membrane NC1 hexamer run successively; fractions 12 mL to 16.4 mL blotted with NC1-specific monoclonal antibody (JK-2)

- stoichiometry N [1]: 2
- stoichiometry N [2]: 6
Substance: Pleurobrachia collagen IV NC1 domains (collagenase-solubilised NC1 hexamer)

- stoichiometry N [3]: 2
- stoichiometry N [4]: 6
Substance: Beroe collagen IV NC1 domains (collagenase-solubilised NC1 hexamer)

- stoichiometry N [5]: 2
- stoichiometry N [6]: 6
Substance: Mnemiopsis collagen IV NC1 domains (collagenase-solubilised NC1 hexamer)
